According to patent CN114685656A (鲁南制药集团股份有限公司, dated 2022):

Columns and labels:
[1] = target: 人SIRPα受体 on CHO cells (CHO-huSIRPα) (human) (UniProt P78324); assay: flow cytometry on CHO-huSIRPα cells, PE anti-mouse IgG Fc
[2] = target: 猴SIRPα受体 on CHO cells (CHO-cyno-SIRPα) (monkey (cyno)); assay: flow cytometry on CHO-cyno-SIRPα cells, PE anti-mouse IgG Fc
[3] = target: 重组hu-SIRPα-his (human, UniProt P78324 31-370, limits assumed); assay: ELISA on coated hu-SIRPα-his (0.5 μg/ml), anti-mouse IgG-HRP
[4] = target: T1, 重组hSIRPα (human, UniProt P78324 31-370, limits assumed); assay: competition ELISA on coated hSIRPα (1 μg/ml) against biotinylated CD47-Fc (6 μg/ml)
T1 construct: also called SIRPα蛋白; SIRPα抗原

[5] = target: T2, 重组hSIRPg-his (human, UniProt Q9P1W8 29-360, limits assumed); assay: competition ELISA on coated hSIRPg-his (1 μg/ml) against biotinylated CD47-Fc (6 μg/ml)
T2 construct: also called sirp-γ

[6] = target: 猴SIRPα受体 on CHO cells (CHO-cyno-SIRPα) (monkey (cyno)); assay: flow cytometry, hybridoma supernatant on CHO-cyno-SIRPα cells, PE anti-mouse IgG Fc
[7] = target: 人SIRPα受体 on CHO cells (CHO-huSIRPα) (human) (UniProt P78324); assay: flow cytometry, hybridoma supernatant on CHO-huSIRPα cells, PE anti-mouse IgG Fc
[8] = target: T1, 重组hSIRPα; assay: SPR (Biacore T200), antibody captured on Protein A chip, SIRPα protein as analyte, 1:1 Langmuir fit
[9] = target: T2, 重组hSIRPg-his; assay: ELISA on coated hSIRPg-his (1 μg/ml), anti-mouse IgG-HRP

MFI [1] [MFI]	MFI [2] [MFI]	EC50 [3] [µg/mL]	IC50 [4] [µg/mL]	IC50 [5] [µg/mL]	MFI [6] [MFI]	MFI [7] [MFI]	Kd [8] [nM]	binding result [9]	Molecule
86.6	76.4								mIgG (antibody)
		0.0225	0.121						SE5A5 (antibody)
		0.00736	0.121	0.196	6980	13600			52B3 (antibody, V domains shown, also called 抗SIRPα抗体52B3) VH: EVQLQQSGAELVRSGASVKMSCKASDYTFTSYNLHWVKQTPGQGLEWIGYIYPGNGNTKYSQKFKGKATLTADTSSSTAYMQISSLTSEDSAVYFCTRNYDYYFYTMGYWGQGTTVTVSS VL: DIVLTQSPKFMSTSVGDRVNITCKASQDVCTAVAWYQQKPGQSPKLLIYSASYRYTGVPDRFTGSGSRTDFTFTISSVQAEDLAVYYCQQHYSTPLTFGAGTKLELK
		0.00546	0.0633		9230	18500	~0.01		57B10 (antibody, V domains shown, also called 抗SIRPα抗体57B10) VH: EVKLQESGAELVRSGASVKMSCKASGYTFTSYNMHWIKQTPGQGLEWIGYIYPGNGATNYNQKFKGKATLTADTSSSTAYMQISSLTSEDSAVYFCARNYDYYFYTMDYWGQGTTVTVSS VL: DIVLTQSTKFMSTSVGDRVSITCKASQDVSTAVAWYQQKPGQSPKLLIYSASYRYTGVPDRFTGSGSRTDFTFTISSVQAEDLAVFYCQQHFSAPLTFGAGTKLELK
		0.00587	0.0653		7570	17200	~0.01	no binding	40F3 (antibody, V domains shown, also called 抗SIRPα抗体40F3) VH: QVQLQQPGAELGKPGASVKLSCKASGYTFSSYYIYWLKQRPGQGLEWIGGINPSNDDTHLTEKFKSKATLIADRSSSTAYIQLSSLTSEDSAVYYCTRSYYANSWFAYWGQGTLVTVSA VL: DIVLTQSPLSLPVSLGDQASISCRSSQTIVHSNGNTYLAWYLQKPGQSPKLLIYKVSNRFSGVPDRFSGSGSGTEFTLKISRVEAEDLGVYYCFQGSHVPYTFGGGTKLEIK
				0.0394					Kwar23 (antibody, V domains shown) VH: EVQLQQSGAELVKPGASVKLSCTASGFNIKDYYIHWVQQRTEQGLEWIGRIDPEDGETKYAPKFQDKATITADTSSNTAYLHLSSLTSEDTAVYYCARWGAYWGQGTLVTVSS VL: QIVLTQSPAIMSASPGEKVTLTCSASSSVSSSYLYWYQQKPGSSPKLWIYSTSNLASGVPARFSGSGSGTSYSLTISSMEAEDAASYFCHQWSSYPRTFGAGTKLELK
		0.0192	0.248		5000	9270			36D6 (antibody, V domains shown, also called 抗SIRPα抗体36D6) VH: EVQLQESGPELKKPGETVKISCKASGYTFTKYGMNWVKQAPGKGLKWLAWINTDTGEAKYSDDFKGRFAFSLETSASIVYLQINNLKNEDTATYFCARGESYSNYVRFVYWGQGTTVTVSS VL: DIVMTQSHKFMSTSVGDRVSITCKASQDVNTAVAWYQQKAGHSPKLLIYWTSTRHTGVPDRFTGSGSGTDYTLTISSVQAEDLTLYYCQQHYSTPWTFGGGTKLEIK
		0.0235	0.15		4560	9520			36G4 (antibody, V domains shown, also called 抗SIRPα抗体36G4) VH: EVQLVESGGGLVQPGGSLKLSCAASGFTFSNYGMSWVRQTPDKRLELVATINSNGGDTSYPDSVRGRFTISRDNAKNTLYLQMSSLKSEDTAMYYCTRGGWSWFAYWGQGTLVTVSA VL: DIVLTQSPTSLAVSLGQRATISCRASESADSYGNSYMNWYQQKPGQPPKLLIYLASNLESGVPARFSGSGSRTDFTLTIDPVEADDAATYYCQQINEDPYTFGGGTKLEIK
